The source of these data is patent US7247703.

The assay addresses HLA-A2.1 class I MHC molecule on T2 cells (human). Kind of assay: T2 class I MHC stabilization assay, anti-HLA-A2 immunofluorescent staining, peptide vs medium alone. The settings on record: remark: other sources report otherwise.

Turning to HLYQGCQVV [p 48-56 HER-2/neu peptide …], the % Increase of class I stabilization on T2 was found to be 20%.

TLSPGKNGV [p 1172-1180 HER-2/neu peptide …] displayed a % Increase of class I stabilization on T2 of 10%. With CLTSTVQLV [p 789-797 HER-2/neu peptide …] the figure was 20%.
